Results from the DeepSol protein solubility set.

Assay: soluble on expression in E. coli; label from the status in PepcDB or PDB records

Sequence | soluble on expression in E. coli
MIRQRRRALTPEQQQEMGQQAATRMMTYPPVVMAHTVAVFLSFDGELDTQPLIEQLWRAGKRVYLPVLHPFSAGNLLFLNYHPQSELVMNRLKIHEPKLDVRDVLPLSRLDVLITPLVAFDEYGQRLGMGGGFYDRTLQNWQHYKTQPVGYAHDCQLVEKLPVEEWDIPLPAVVTPSKVWEW | soluble
MTLDECIRLAWKQNPSVRNSVIDIKEARADYMAAVGAFLPRAAVNAETGKRFGRSIDPDTNGYTNETFEEGTVGLDMTLSLFEGFSRIHQVRFRKMNKERSEWALKNRQNELAYQVTDAYYKLILERKLLNLALEQSRLSERYLKQTEAFVELGLKSASDLQEVKARREGDIYRYKSRENTCRLALLHLEQLMNFQPGDTLVIQDTIVEANQLPLLSVPSTETLYAQSLEILPVMRMIDLKRKAARKEYAMAGGTFSPSVYARFTVGSNFYNTVFSARQLRDNIGKYVGIGISFPLLSGLERLTHQRKQKLNLYRLKNEEELEKQQLYTDIEQTLLSLHAGFSEHQQALQQLEAEALVLKESERKWEEGLISVFQLMEARNRFISAKAELVRVRLQVEMMRKLEKYYREGTFL | not soluble
MKLAYWMYAGPAHIGTLRISSSFRNVHAIMHAPLGDDYFNVMRSMLERERNFTPVTTSVVDRNVLARGSQEKVIDNILRKDTEERPDLIVLTPTCTSSILQEDLQNFVERAKESAQCDVLLADVNHYRVNELQAADRTLEQIVRFYLDRAQRQGTLPSQRTEQPSVNILGMTTLGFHNRHDTTELQRLMADLGITVNAVIPAGASVEELQHLPRAWFNLVPYREVGLLTAQYLQDTFDQPMVAIAPMGITATADCIRQIQQVLNQQGAAVDFEPFIDRQTRFASEAAWFSHSIDCQNLTGKRAVVFGDNTHAAAFTKILSREMGIHVVLAGTYCKHDADWFEAEVAGYCDRVLISDDHNAIADAIAELEPAAIFGTQMERHVGKRLNIPCGVIAAPVHIQNFPVGYRPFVGYEGANQIVDLVYNSFTLGMEDHLLEIFGGHDTKEVLTKTVSAGSDLDWKPDGLTELNRIPGFVRGKVKRNTEKYAREQGLTAITAEVLYAAKEALGALEHHHHHH | not soluble
DGNEIIGDPLRKAAKLIDKGYIVAIKGIGGIHLACDATREDVVAELRKRIFRPQKPFAIMAKDLETVRTFAYISPEEEEELTSYRRPIVALKKKEPFPLPENLAPGLHTIGVMLPYAGTHYILFHWSKTPVYVMTSANFPGMPMIKDNEEAFEKLRDVADYLLLHNRRIPNRADDSVVRFVDGRRAV | not soluble
MAHHHHHHMDEFRPDDTTQIEEGSESNAALLQLQDALVSALTASGTLGKIRAQLRATALALIRGDDELQNAAVGPFIRPRTLTTHAKVSLLLLHDFLQHYHLQQTAGVLDVESSVHLLFNERSVLLGDLARLPGDGSLLERLVRLYEPTRQIPAVGPSGATAVTTASQTSVSIPAAKLPASPVASSSSSASQEQTVAMAQPQDADVQYELDAYEDSIPFSDTEGTIDGNVHCDEVERLTQ | not soluble
MTTPNTQLWEVFIRSRNGLAHKHVGSLHAADATLALQAARDIYTRRGEGLSIWVVPSNAITASDPAEAGMLFEPAESKIYRHPTFYEVPDEVGHM | not soluble
MDIIERITKLKNEKNAVILAHNYQPEEIQKIADIIGDSLELCIAARDTDADVIVFCGVDFMAETAKVLNSGKKVLIPEIIETDCPMAHQLPPEIILEAKKKNPDAKVVIYVNTLASAKALADATCTSANADKVVNSFEEDEILFGPDNNLGYFVSKRSNKKIIPMPEGGHCYVHKMFTLDDAKAVKEKYPNAELLIHPESDPKLQETADYVMSTGGMVKHVLNSECSEFIIGTECDMISRLKIELEKAGKSKKLIPLRTDAICKSMKNITLEKIEKCLLEEKHEIMLDEKIIENARKAIERMLSILEHHHHHH | not soluble
MKTIRLTTAQALVKFLNQQYVEFDGHIQKFVKGIFTIFGHGNVLGLGQALEEDPGELEVYQGRNEQGMAHAAIAFAKQKHRRQIMACTSSVGPGAANMVTAAATASANHIPVLLLPGDTFATRQPDPVLQQIEHWHDLTVSTNDAFRAVSKYWDRISRPEQLMSAMIQAMRVLTDPANTGAVTIALPQDVQGEAYDFPESFFQKRIHRIERRVPAKAAIHEAVELIRRKKKPIIICGGGVRYSEAAEELKQFAEKFHIPYGETQAGKSAVESAHPYNLGGIGVTGNLAANIIAKEADLVIGIGTRYTDFTTGSKQLFQHPEVEFLTINVSVFDACKLDAVRVVADAKLALLALTEELEKIGYRSGYTNEIDIAKKAWEEELNRLHHVRYRQSGFQPEVAGHLDEVLTEYSEFFDSSLTQTEVIGAINEWIDDDAIIIGAAGSLPGDLQRMWVARRPNTYHMEYGYSCMGYEIAGALGVKMAEPDKEVYAMVGDGSYLMLHSELVTSIQEKKKINVLLFDNGGFGCINNLQMGHGMGSFATEFRYRNEETGRLDGSLIPIDFAQSAAGYGVKTYKVHTLEQLKEALEDAKQQSVSTLIDIKVLPKTMTHDYESWWHVGVAEVSRNPKIAEAYKRKEQQLQRARKY | soluble
MKMKSLFVAMITFFSAAPFAHWQPIGNAEYTWGPFHVYTIGLFSETGTYQENERPLMLSFKYEKPIEGKNFAITLIKEIETLKLNDGDTQSWLKEMQATFPDFSPNDILNYIALPDRGYFVLNDTVLEHDFDAKFNQAFIGIWLAPNSTFVKLQPQLLGKTKSNHEATEFYLKPEIESFDEQDSTPELPPNYLLDSQKKSQG | not soluble
MCIGVPGQVLAVGEDIHQLAQVEVCGIKRDVNIALICEGNPADLLGQWVLVHVGFAMSIIDEDEAKATLDALRQMDYDITSA | not soluble
MFRISLEEFEGPLDLLLFFIKRDELDIYNIPISKITGDFIAYIHAMRRLNLEVAAEFIYMASMLMSIKARMLLPRAEPVDGEADEFDPRTELVQRLLEYKRIKEGASELELMALDRERMFPRGYFEELEPAVIDEMDEPVNRPTLYHLMLAYQSVLDNMPKVRTQNVTDAPVTVEEQSALIMARLGERLQVSFTSLFQEFREAIVIVVTFLAVLELCRNRKISVIVKEGVNDFWISQRDHAE | soluble
MIEADYLVIGAGIAGASTGYWLSAHGRVVVLEREAQPGYHSTGRSAAHYTVAYGTPQVRALTAASRAFFDNPPAGFCEHPLLSPRPEMVVDFSDDPEELRRQYESGKALVPQMRLLDAEQACSIVPVLRRDKVFGATYDPTGADIDTDALHQGYLRGIRRNQGQVLCNHEALEIRRVDGAWEVRCDAGSYRAAVLVNAAGAWCDAIAGLAGVRPLGLQPKRRSAFIFAPPPGIDCHDWPMLVSLDESFYLKPDAGMLLGSPANADPVEAHDVQPEQLDIATGMYLIEEATTLTIRRPEHTWAGLRSFVADGDLVAGYAANAEGFFWVAAQGGYGIQTSAAMGEASAALIRHQPLPAHLREHGLDEAMLSPRRLSPLEHHHHHH | not soluble
MGSDKIHHHHHHMFDRSRKGEHALLIQTHSGGPAEEDVLEEFAELAKSAGATVAATLTARIDKPSPSTLIGSGKLEEVKAAAEATGADLVLVNHTLSPGQERNLERYLERRVIDRTGLILDIFAQRARSHEGKLQVELAQLRHMATRLVRGWTHLERQRGGAIGLRGPGETQLETDRRLLQKRVEQLQKRLEKVEVQRTQMRRARMRSELPRIALVGYTNAGKSTLFNALTGADAYAADQLFATLDPTVRRIALPGGSAVLADTVGFVRDLPHELVAAFRSTLSEARDADLLLHIVDAADPLREERIHQVDEVLQAVGAGDLPQLLVFNKIDKIEGAEVRHDAQDGIPDQARRERVWISARDGRGLEELQRALGHRLDLRHITGSLRLPASAGRLRSKLHQLEVIRSEQVDEEGWLLEVDLPYVEAERLAAGEDGAPLRALLPDRREDWET | not soluble
MKIEHLQHPTTHQLDQLMTIWLSGNLTAHDFVSADYWRQQAPLVREALQSAELIVGLTDGPEAYILGFIGLQNDYIAGIFICNDAQHQGLGTALLATAQADYHQLQLNVYVANRPAIAFYHYHGFRVIDQASDQATQQSEYTMQWQR | not soluble
FMQEPEAIETALHRLSDHDLIVIQVLDPTEKVLPLQGNSKLVDLETGEEIRTYISDNFKERYTRKLDDHSARIKKTCMKVGAEFYTFTTDTPVFNAFYNTIRRRRR | not soluble
MGSDKIHHHHHHMNEKTTTAQKGAPRARVSATRVRSASRTPHATTVNPADLTVHNHPLARRHYRVATAAIEGFVDLVEHCVRVLIPGALIYARPRMGKTHAIDYLALHLGRNRGDILVLRMSCEYHRTDYEGAFFSALLSAAGIRDPQPRFIADKRFALMRRINEQLQMRSGHIVVLFCDEAQRLSKHALEWLRDVHDQLAHHGVRLITFLVGQPQLMEQKAQYQLSGDEQIVARFMIEQLHFRGITGAVEAATCLASYDMTRYPEDTGSTFTAFFYPDAYAAGLRLEQSAAALWNGFVNAHKVAQLAGPIELHMDYFSRAVESVLLNGPQWDSAGLVLDSAYWERAVRESGYVAAQQTVQPEV | not soluble
MGSDKIHHHHHHMVKLLLICLATIVMISCGSEQEKLTVYIPDTCTDTLQYEIYLPEEEGLNIFYDLCVTDSFCAFLDTRNDTLLKIFTATIPPALVGLGMKGEGPDDFLFPFFEKSIGREGKGKLSFIELNSWNKKIVAIHSAASPAPVAVSVVEAQQLPEMPVVRDYNETDSCVYGIDVDMQHGLFFIYDKHTARVKTVDYHRDIRSGYPEGHLSYLYESCLMVNQDAKAACMGLLNLNSLCFYDLKGNLMKEIVIGKELKSPEYDPEFLDFPNAPKYFISLCGTPNYLYALYNGFPGTSGKSKIMVFTWQGAPVAIYQTDVKLERIAVAPSGRYVLGLNITEEGGSDVLKFEL | not soluble
MGSDKIHHHHHHMMEGKDDADLFADLGLSESIASIPSYTFIRDGLNRIFASSNNIWNVLIGTRLTPPKPLSDYDLVHIHNPVPLAGMVSVALHCRIKGIPYCVTTHGISKVPKIPEELGLSRGQRIVFNHGFLRAYKNVLSNATHLFALSEGDQDTITEWFSDQSVSVLPNGVDLNVSPEAPEVDTKVDLPDKPVLLFVGRIMASKGVDDLLEAFSLLEHDCKLIIVGPMRDEHFKDQIHTLSDDVEYRGYVEQAELDALYRRADLFVFPTRSDVFPLVTLEAMAAGTPVVSTTVGGLPEQIPDQVGRLVPPKEPKTFAAAVDGMLSNEQLRTEMGRAGKSLVEERYSWEAVAKAAVTEYYRIVN | not soluble
MSLGIPPNEAKTLGTYVPGDITLVDSYGNEFQLKNLKGKPIILSPIYTHCRAACPLITKSLLKVIPKLGTPGKDFWVITFTFDPKDTLEDIKRFQKEYGIDGKGWKVVKAKTSEDLFKLLDAIDFRFMTAGNDFIHPNVVVVLSPELQIKDYIYGVNYNYLEFVNALRLARGEGHHHHHH | soluble
MDTQNLPDQIIPIFMSFDKNYALGASVSLYSLLSHASRHTSMIDFSPLNQSNKLLGANIVYKIHCLVKGVTLEQQNKLLKTIAPFKKFASLEFIHINSLDHSIESYLNKSCSKRYGGLLVLCRLLLASLFPNYSKIISIDADTVFLGDVASAYFALDNDPTKSLGMVRDTFSHLSFEAFCDFCKRACKNFKIDFSRFSPDELKRIHQGFNMGFLVAHLDRWRQDGFEKTALEFLKTRGKDLFYPEQCLVNMVFWERILELPIYYNCYSDFFKEHYPKNIIMLHFIKYKPWRSVSSLNGRLICYEAEASFWLANLFHTPFKNDFFKERLEMAKDQQMQSFKTHIRSQTIRNYLGFRVKNILKKVFKLSLEHHHHHH | soluble
